Here are results for one protein from publication PMC10213376 (Redox Biology, 2023).

One may read the stoichiometry N as the number of molecules, sites or subunits per partner or assembly.

The data set concerns the molecule itself. As to the kind of experiment: crystal structure.

B1: Human catalase (CAT) (enzyme)
chain: MADSRDPASDQMQHWKEQRAAQKADVLTTGAGNPVGDKLNVITVGPRGPLLVQDVVFTDEMAHFDRERIPERVVHAKGAGAFGYFEVTHDITKYSKAKVFEHIGKKTPIAVRFSTVAGESGSADTVRDPRGFAVKFYTEDGNWDLVGNNTPIFFIRDPILFPSFIHSQKRNPQTHLKDPDMVWDFWSLRPESLHQVSFLFSDRGIPDGHRHMNGYGSHTFKLVNANGEAVYCKFHYKTDQGIKNLSVEDAARLSQEDPDYGIRDLFNAIATGKYPSWTFYIQVMTFNQAETFPFNPFDLTKVWPHKDYPLIPVGKLVLNRNPVNYFAEVEQIAFDPSNMPPGIEASPDKMLQGRLFAYPDTHRHRLGPNYLHIPVNCPYRARVANYQRDGPMCMQDNQGGAPNYYPNSFGAPEQQPSALEHSIQYSGEVRRFNTANDDNVTQVRAFYVNVLNEEQRKRLCENIAGHLKDAQIFIQKKAVKNFTEVHPDYGSHIQALLDKYNAEKPKNAIHTFVQSGSHLAAREKANL
For B1, the “stoichiometry N” value worked out at 4.
